Data as given in patent US20240409617A1.
Changes are numbered by the printed parent chain.

B1: S1-R3-T1-C4 (Ab_8) scFv-Fc (scFv, V domains shown)
VH: QVQLVQSGAEVKKPGSSVKVSCKASGGTFSSYAISWLRQAPGQGLEWMGWINPNSGGTNYAQKFQGRVTMTRDTSISTAYMELSRLRSDDTAVYYCARGSGGYYLGWGQGTLVTVSS
VL: QPGLTQPPSVSKGLRQTATLTCTGNSNNVGNQGAAWLQQHQGHPPKLLSYMNNNRPPGISERFSASRSGNTASLTITGLQPEDEADYYCSAWDSSLSRWVFGGGTKLSVL
B2: S1-RBD-R3-T1-F5 (Ab2-7) scFv-Fc (scFv, V domains shown)
VH: QVTLKESGPTRVKPTQTLTLTCTFSGFSLSTTGVGVGWIRQPPGKALEWLALIYWNDDKRYSPSLKSRLTITKDTSKNQVVLTMTNMDPVDTATYYCARISGSGYFYPFDIWGQGTTVTVSS
VL: NFMLTQPHSVSESPGKTVTISCTRSSGSIASNYVQWYQQRPGSSPTTVIYEDNQRPSGVPDRFSGSIDSSSNSASLTISGLKAEDEADYYCQSYDSSSLWVFGGGTKLTVL
B3: Ab_13 scFv-Fc (scFv, V domains shown)
VH: B2 VH with T10K, R11L, T32S, N56D, T72A, N78Y, T117M, S122A
VL: B2 VL with S44A, A83T, S98N
B4: Ab_14 scFv-Fc (scFv, V domains shown)
VH: QVQLQQSGPGLVKPSQTLSLTCAISGDSVSSNSAAWNWIRQSPARGLEWLGRTYYRSRWYNDYAISMKSRITINPDTSKNQFSLQLESVTPEDTAVYYCAREIRGFDYWGQGTLVTVSS
VL: QSVLTQPPSASGSPGQSVTISCTGTSSDVGAYNFVSWYQHHPGKAPKLIIYDFNKRPSGVPDRFSGSKSGNTASLTVSGLQADDEADYYCSSYAGSNNFDVVFGGGTKLTVL
B5: Ab_16 scFv-Fc (scFv, V domains shown)
VH: QVQLVQSGGGVVQPGRSLRLSCAASGFTFSNYGMHWVRQAPGKGLEWVALIWERGSKKDYADSVKGRFTVSRDNSKNTLYLQMNSLRPEDTAVYFCAREGISMTGAEYFQHWGQGTLVTVSS
VL: QSVLTQPPSVSGSPGQRVTMSCTGSSSNIGAGYDVHWYQQVPGAAPRLLIYGTNNRPSGVPDRFSGSKSGTSASLTITGLQAEDEADYYCQSYDNSLTDPYVFGTGTKVTVL
B6: Ab_17 scFv-Fc (scFv, V domains shown)
VH: QVQLVQSGGGVVQPGRSLRLSCAASGFTFDDYAMHWVRQVPGKGLEWVSGIDWNSGVIGYADSVKGRFTISRDNVKNSLYLQMNSLRTEDSALYYCAKDIGPGGSGSYYAFDIWGQGTTVTVSS
VL: QSALTQPASVSGSPGQSITISCTGTSSDVGGSKYVSWYQQHPGKAPKVMIYDVTKRPSGVPDRFSGSKSGNTASLTISGLQAEDEADYYCAAWDDSLNGVVFGGGTKLTVL
B7: Ab_18 scFv-Fc (scFv, V domains shown)
VH: EVQLVQSGGGVVQPGRSLRVSCAASGFSFSRYGMHWVRQAPGKGLEWVAFIRHDGSKKYYADSVEGRFTISRDNSRNTVSLEMNSLRGEDTAVYYCAKDGRLEAALDDWGQGTLVTVSS
VL: NFMLTQPHSMSGSAGKTVTVSCIRSSGSIANNFVQWYQQRPGSAPTTVIYEDNQRPSGVPDRFSGSIDSSSNSASLTISGLKTEDEADYYCQSYDSSNLVFGGGTRLTVL
B8: Ab_19 scFv-Fc (scFv, V domains shown)
VH: EVQLVESGAEVKKPGESLKISCKGSGYSFTSYWIGWVRQMPGKGLEWMGIIYPGDSDTRYSPSFQGQVTISADKSISTAYLQWSSLKASDTAMYYCARRGDLDAFDIWGQGTMVTVSS
VL: QPGLTQPPAASGTPGQRVTVSCSGASANIGSNAVSWFKQFPETAPRLLISGNTHRPSGVPDRVSGSKSGTSASLTISGLQSDDEADYYCAAWDDSLNGYVFGSGTKVTVL
B9: Ab_20 scFv-Fc (scFv, V domains shown)
VH: QVQLVQSGGGSVKPGGSLRLSCAASGYRLSDYYMHWVRQAPGKGLEWVANIKQDGSEKYYVDSVKGRFTISRDNAKNSLYLQMNSLRAEDTAVYYCARVRGWSRGYFDYWGQGTLVTVSS
VL: B2 VL with R24G, S44A, T77L, A83T, S98N, L99H
B10: Ab_21 scFv-Fc (scFv, V domains shown)
VH: QVQLVQSGGGLVQPGGSLRLSCATSGFTFDDYAMHWVRQAPGKGLEWVSGISWNSGSIGYVDSVKGRFTISRDNRNNKVYLQMNNLRAEDTAVYYCARDWWGSIDHWGLGTLVTVSS
VL: QSALTQPRSVSGSPGQSVTISCTGTSSDVGGYDYVSWYQQHPGKAPKLIIYDVSKRPSGVPDRFSGSKSGNTASLTVSGLQAEDEADYYCSSYTSSSPVVFGGGTKLTVL
B11: Ab_23 scFv-Fc (scFv, V domains shown)
VH: EVQLVQSGAEVKKPGSSVKVSCRSSGGTFSTYGITWVRQAPGQGLEWMGRIIPSLGIPNYAQKFQGRVTITADTSVSTAWMELSSLESDDTAIYYCARENIDLATNDFWGQGTLVTVSS
VL: QSALTQPPSASGSPGQSVTISCTGTSRDIGAYGYVSWYQQVPGKAPKLIIYEVRNRPSGVSSRFSGSKSGNTASLTISGLQAEDEADYYCSSYTSSSTLDVVFGGGTKLTVL
B12: Ab_25 scFv-Fc (scFv, V domains shown)
VH: QVQLVQSGGGLVQPGGSLRLSCAASGFTFSSYWMSWVRQAPGKGLEWVANIKQDGSEKYYVDSVKGRFTISRDNAKNSLYLQMNSLRAEDTAVYYCARGFYYYGAFDIWGQGTTVTVSS
VL: B2 VL with R24G, S44A, D68G, A83T, S98N, L99H
B13: Ab_26 scFv-Fc (scFv, V domains shown)
VH: QVQLVQSGGGLVQPGRSLRLSCAASGFTFDDYAMHWVRQVPGKGLEWVSGIDWNSGVIGYADSVKGRFTISRDNAKNSLYLQMNSLRAEDTALYYCAKDAYSYGFLGAFDIWGQGTMVTVSS
VL: LPVLTQPPSVSVAPGQTASITCGGDNIRTKGVHWYQQKPGQAPLLVIYYASDRPSGIPERFSGSSSGNTATLTISRVEAGDEADYYCQVWDSSSDLVVFGGGTTLTVL
B14: Ab_27 scFv-Fc (scFv, V domains shown)
VH: QVQLVQSGTEVKKPGASVKVSCKASGYSFTGSHLHWVRQAPGQGLEWMGWINPDSGVINYAQKFQGRVTLTRDTSISTAYMELSGLRSDDTAVYYCARDKAIGYVWALDYWGQGTLVTVSS
VL: QSALTQPPSVSGSPGQSVTISCTGTSSDVGTYNRVSWYQQPPGKAPKLMIYEVSNRPSGVSNRFSGSKSGNTASLTISGLQAEDEADYYCSSYTRTFTYVFGTGTKVTVL
B15: Ab_28 scFv-Fc (scFv, V domains shown)
VH: QVTLKESGPGLVNPSETLSLTCTVSGASISNSFWSWIRQSPGKGLEWIGYTSYSGNSIYNPSLKSRLTMSIDTSKNQLSLNLRSLTAADTAVYYCARREWIKGHFDYWGQGTLVTVSS
VL: B2 VL with R24G, S26G, S44A, A83T, S98N, L99P, W100V
B16: Ab 29 scFv-Fc (scFv, V domains shown)
VH: QVQLQQSGPGLVKPSQTLSLTCAISGDSVSSYSDAWNWIRQSPSRGLEWLGRTYYRSKWYNDYAVSVKSRITINPDTSKNQFSLQLSSVTPEDTAVYYCAREIVATTPFRNYYYGMDVWGQGTTVTVSS
VL: B2 VL with K16N, S25T, Y50F, E51Q, N53K, Q54L, A83T
B17: Ab 30 scFv-Fc (scFv, V domains shown)
VH: QVQLVQSGGGVVQPGKSLRLSCTASGFTFSDFPIHWVRQAPGKGLEWVGVISYDGNIKYYGDSVKGRFTISRDNAKNSLYLQMNSLRVEDTAVYYCARGGSSFDIWGQGTTVTVSS
VL: SYELTQPPSVSEAPRQRVTISCSGSTSNIGNNAVSWYQHLPGKAPKLLIYYNERLPSGVSDRFSGSKSGTSASLAISGLRSEDEADYYCAAWDDSLSGHVVFGGGTKLTVL

Assays:
[1] = molecular target: B.1.1.7 Spike (SARS-CoV2)
[2] = molecular target: B.1.351 Spike (SARS-CoV2)
[3] = molecular target: B.1.1.7 Spike (SARS-CoV-2 spike protein, UK variant B.1.1.7) (SARS-CoV-2)
[4] = molecular target: B.1.351 Spike (SARS-CoV-2 spike protein, South African variant B.1.351) (SARS-CoV-2)
[5] = molecular target: P.1 Spike (SARS-CoV-2 spike protein, Brazilian variant P.1) (SARS-CoV-2)

Row | Binder | Kd [1] [pM] | Response [1] | Kd [2] [pM] | Response [2] | Kd (P.1 Spike (SARS-CoV2)) [pM] | Response (P.1 Spike (SARS-CoV2)) | Kd [3] [pM] | Response [3] | Kd [4] [pM] | Response [4] | Kd [5] [pM] | Response [5]
1 | B1 | 2.29 | 0.202 | 1090 | 0.0872 | 10.6 | 0.0784 |  |  |  |  |  | 
2 | B2 | 379 | 0.127 | 360 | 0.13 | 7.04 | 0.152 |  |  |  |  |  | 
3 | B3 | 1.91 | 0.113 | 735 | 0.103 | 4.88 | 0.112 |  |  |  |  |  | 
4 | B4 | 7.98 | 0.355 | 3.1 | 0.253 | 9.75 | 0.27 |  |  |  |  |  | 
5 | B5 | 2.36 | 0.388 | < 1 | 0.405 | 7.93 | 0.35 |  |  |  |  |  | 
6 | B6 | 1.85 | 0.331 | 562 | 0.199 | 8 | 0.177 |  |  |  |  |  | 
7 | B7 | 9.28 | 0.256 | 1340 | 0.12 | 2.97 | 0.109 |  |  |  |  |  | 
8 | B8 | 10.3 | 0.203 | 11.8 | 0.258 | 8.94 | 0.204 |  |  |  |  |  | 
9 | B9 | 2.6 | 0.173 | 7.03 | 0.213 | 11.2 | 0.17 |  |  |  |  |  | 
10 | B10 | 1.47 | 0.199 | 369 | 0.148 | 9.52 | 0.103 |  |  |  |  |  | 
11 | B11 | 9.11 | 0.135 | 7.58 | 0.189 | 8.79 | 0.123 |  |  |  |  |  | 
12 | B12 | 427 | 0.0668 | 1.13 | 0.0577 | 8.72 | 0.0396 |  |  |  |  |  | 
13 | B13 | 1.37 | 0.336 | 1.78 | 0.214 | 10.3 | 0.188 |  |  |  |  |  | 
14 | B14 | 1.57 | 0.281 | 1.25 | 0.0974 | 8.9 | 0.0795 |  |  |  |  |  | 
15 | B15 | 1.49 | 0.206 | 6.38 | 0.12 | 8.91 | 0.102 |  |  |  |  |  | 
16 | B16 |  |  |  |  |  |  | 693 | 0.118 | 371 | 0.0418 | 8.45 | 0.0232
17 | B17 |  |  |  |  |  |  | < 1 | 0.139 | < 1 | 0.0883 | 9.02 | 0.0766
